From paper PMC4964276

What was measured:
PKA RIIα (Homo sapiens) = PKA RIIα (Homo sapiens) (UniProt P13861); experiment: SPR; conditions: cited from earlier work
[1] = biological target: AKAP18β 30-mer peptide, Ala63 to aspartate (human); experiment: peptide or protein array
[2] = biological target: AKAP18β 30-mer peptide, Ala67 to aspartate (human); experiment: peptide or protein array
[3] = biological target: AKAP18β 30-mer peptide, Val60 to aspartate (human); experiment: peptide or protein array
[4] = biological target: AKAP18β 30-mer peptide, Val64 to aspartate (human); experiment: peptide or protein array

Chain of RIIα subunits, recombinant, radioactively labelled (32P) (P13861 whole entry): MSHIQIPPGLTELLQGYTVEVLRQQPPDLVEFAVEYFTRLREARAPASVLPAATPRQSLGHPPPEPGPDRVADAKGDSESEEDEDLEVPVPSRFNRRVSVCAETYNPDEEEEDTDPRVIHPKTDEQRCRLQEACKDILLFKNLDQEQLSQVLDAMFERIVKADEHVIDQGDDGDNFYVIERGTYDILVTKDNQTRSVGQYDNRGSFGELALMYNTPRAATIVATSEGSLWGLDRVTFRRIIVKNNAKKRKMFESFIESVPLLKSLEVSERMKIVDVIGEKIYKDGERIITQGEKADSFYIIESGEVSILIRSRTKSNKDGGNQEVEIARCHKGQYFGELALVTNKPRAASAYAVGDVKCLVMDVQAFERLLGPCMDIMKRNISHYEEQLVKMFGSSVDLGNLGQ
Chain of PKA RIIα (Homo sapiens) (P13861 2-404): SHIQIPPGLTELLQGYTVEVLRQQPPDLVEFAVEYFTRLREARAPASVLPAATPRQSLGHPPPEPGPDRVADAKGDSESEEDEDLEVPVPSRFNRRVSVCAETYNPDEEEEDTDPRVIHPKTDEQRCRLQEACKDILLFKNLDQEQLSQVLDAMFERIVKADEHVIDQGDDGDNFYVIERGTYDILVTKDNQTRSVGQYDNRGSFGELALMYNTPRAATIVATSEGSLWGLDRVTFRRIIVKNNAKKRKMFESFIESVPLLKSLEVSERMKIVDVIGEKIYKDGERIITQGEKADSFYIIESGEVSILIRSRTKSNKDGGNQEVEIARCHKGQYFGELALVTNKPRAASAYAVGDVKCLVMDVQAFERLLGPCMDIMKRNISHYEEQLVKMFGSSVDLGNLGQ
Chain of AKAP18δ PKA-binding domain peptide PKA-binding domain (25 aa) (Q9P0M2 295-319, stated change not applied): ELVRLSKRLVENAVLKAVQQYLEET

| reduction of binding (% against the wild-type peptide) [1] | reduction of binding (% against the wild-type peptide) [2] | reduction of binding (% against the wild-type peptide) [3] | reduction of binding (% against the wild-type peptide) [4] | Substance | Kd (PKA RIIα (Homo sapiens)) |
| --- | --- | --- | --- | --- | --- |
| – | – | – | – | AKAP18δ PKA-binding domain peptide PKA-binding domain (25 aa) (from UniProt Q9P0M2) | 0.4 nM |
| > 60% | > 60% | > 60% | > 60% | RIIα subunits, recombinant, radioactively labelled (32P) (from UniProt P13861 1-404) (natural protein) | – |
